Experimental data: publication PMC7951984
One block for each molecule: values may come before it. Ends that are not written are not given here.

Target: Plutella xylostella tachykinin receptor (PxTKR) (Plutella xylostella)

EC50 of the cAMP response (cAMP-Glo assay) of HEK293 cells stably expressing PxTKR, peptide from 10 pM to 100 μM: 87.7 nM
Molecule: Plutella xylostella tachykinin peptide 3 (PxTK3)

EC50 of the cAMP response (cAMP-Glo assay) of HEK293 cells stably expressing PxTKR, peptide from 10 pM to 100 μM: 32 nM
B1: Plutella xylostella tachykinin peptide 1 (PxTK1) (peptide)
peptide: APSGFLGMR
modifications: ends and bridges not checked
